Laboratory results taken from paper PMC7619190.

Columns and labels:
[1] = target: human SRC SH2 domain (Gln147-Lys252) C188A (human) (UniProt P12931); test: ITC; peptide (400 uM) titrated into SRC SH2 (40 uM) in the cell, 25 C, MicroCal PEAQ-ITC Automated; SH2 domain pretreated with 1 mM TCEP (reducing conditions)
[2] = target: human SRC SH2 domain (Gln147-Lys252) C188A (human) (UniProt P12931); test: ITC; peptide (400 uM) titrated into SRC SH2 (40 uM) in the cell, 25 C, MicroCal PEAQ-ITC Automated; SH2 domain pretreated with 0.1 mM PV (oxidised)

Question: Which fold increase in affinity against SH2 WT [1] does the source give for “SRC C-terminal phosphopeptide (spanning pY530)” here?
Answer: The fold increase in affinity against SH2 WT was 5 fold.

Question: What about the fold lower affinity against reducing conditions [2] of the same substance?
Answer: The fold lower affinity against reducing conditions was 3.5 fold.
